Experimental data: the supplement of paper PMC10126150
± gives the standard deviation of the averaged measurements.

tested on: ATP; assay: switch fluorescence ratio, 500 uM ATP over buffer (Cy3 cluster intensity, sum of 5 cycles each) (fold (ratio)); higher = stronger signal-on switching upon ATP binding; sequences stand for … in TCGTCGGCAGCGTCAGATGTGTATAAGAGACAGTTTTTTTTTTTTTTTTTTTTTTTTT…TC; conditions: aptamer strand: ATP DNA aptamer (quencher-CACCTGGGGGAGTATTGCGGAGGAAGG + anchor), 100 nM annealed; ATP concentration: 500 uM
Method in brief: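 Clusters with intensities outside 100-1000 RFU were excluded. The remaining Cy3-labelled switching-strand clusters on a modified Illumina MiSeq flow-cell had been annealed to 100 nM quencher-labelled ATP aptamer and imaged in selection buffer, then after 15 min with 500 uM ATP at 22 °C, for five cycles separated by NaOH stripping and re-annealing. The fluorescence ratio, averaged per switch-domain sequence, is each cluster's summed target-cycle Cy3 intensity over its summed buffer-cycle Cy3 intensity.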
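Further: ATP exposure 15 min at 22 °C before imaging.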

Sequence	switch fluorescence ratio
TATCGGGATA	0.994 ± 0.021
TATCGTAGGC	0.9996 ± 0.00057
TATCGTCGGG	1.008 ± 0.0064
TATCTAAAGT	1.01 ± 0.029
TATCTAAATA	1.007 ± 0.007
TATCTAGGGC	1.025 ± 0.0042
TATCTAGGGG	0.981 ± 0.035
TATCTAGGTT	1 ± 0.02
TATCTATCCG	0.985 ± 0.039
TATCTATCTT	0.994 ± 0.0066
TATCTCAACG	1.045 ± 0.006
TATCTGGGGG	1.01 ± 0.055
TATCTGTATA	1.11 ± 0.17
TATCTTAAAT	0.997 ± 0.028
TATCTTGCAT	0.97 ± 0.048
TATCTTTGGG	0.981 ± 0.026
TATGAAAGTG	0.983 ± 0.035
TATGAAATAG	0.99 ± 0.034
TATGAAGGGG	1.22 ± 0.34
TATGAATTGG	1 ± 0.018
TATGACGTTA	1 ± 0.048
TATGAGATTA	0.9935 ± 0.004
TATGAGGAAC	1.09 ± 0.14
TATGAGGCTT	0.999 ± 0.028
TATGAGGGGT	1.13 ± 0.047

Sequence	switch fluorescence ratio
TATGATAGGC	0.953 ± 0.058
TATGATGTGC	0.969 ± 0.017
TATGATTTGT	1 ± 0.019
TATGATTTTG	0.993 ± 0.02
TATGCATTAA	1.01 ± 0.021
TATGCCGGGG	0.988 ± 0.057
TATGCGGGGC	1.1 ± 0.12
TATGCTAAGG	0.996 ± 0.025
TATGGACA	1.05 ± 0.01
TATGGACGTT	1.03 ± 0.053
TATGGAGGGC	1.06 ± 0.041
TATGGATCTT	0.983 ± 0.027
TATGGATGGG	0.961 ± 0.02
TATGGATTGG	0.977 ± 0.029
TATGGCATGG	1 ± 0.05
TATGGCCAGT	1.03 ± 0.033
TATGGCCGCC	1.01 ± 0.043
TATGGCGACA	1.01 ± 0.087
TATGGGAGGC	1.01 ± 0.059
TATGGGCACG	0.99 ± 0.024
TATGGGCCAG	0.996 ± 0.02
TATGGGGAGC	0.998 ± 0.044
TATGGGGAGT	0.981 ± 0.046
TATGGGGATT	0.991 ± 0.037
TATGGGGGTG	1.05 ± 0.043

Sequence	switch fluorescence ratio
TATGGGGTGG	1.01 ± 0.015
TATGGGGTTA	0.981 ± 0.028
TATGGGGTTG	1.03 ± 0.12
TATGGGTACT	1 ± 0.027
TATGGGTTTG	0.994 ± 0.04
TATGGTATCT	0.994 ± 0.024
TATGGTCACC	1.03 ± 0.03
TATGGTCATA	0.999 ± 0.032
TATGGTCATT	0.99 ± 0.015
TATGGTCCTG	0.962 ± 0.023
TATGGTTG	0.99 ± 0.057
TATGGTTTCC	1.03 ± 0.05
TATGTAAATT	1.01 ± 0.012
TATGTAATGG	1.02 ± 0.036
TATGTAGAGA	0.99 ± 0.023
TATGTATGC	1.03 ± 0.014
TATGTCATCG	1.01 ± 0.028
TATGTCGCCA	1.01 ± 0.024
TATGTGTGCG	1.02 ± 0.017
TATGTGTTTT	1.031 ± 0.0034
TATGTTACGG	1.03 ± 0.0075
TATGTTGGGT	1.02 ± 0.037
TATGTTGTTT	1.04 ± 0.023
TATGTTTGGC	1 ± 0.04
TATGTTTTAT	1.02 ± 0.048

Sequence	switch fluorescence ratio
TATTAAGAAT	0.987 ± 0.0043
TATTAAGGAT	1 ± 0.031
TATTAATAGA	0.999 ± 0.061
TATTAATCTT	1.02 ± 0.014
TATTACACTG	1.03 ± 0.033
TATTACGGCG	1.02 ± 0.03
TATTACTATT	0.999 ± 0.023
TATTAGAGCG	1.02 ± 0.025
TATTAGGGGT	1.01 ± 0.023
TATTAGTGGC	0.9403 ± 0.0088
TATTAGTTTT	1.02 ± 0.047
TATTATAAAT	0.98 ± 0.016
TATTATAGAT	0.99997 ± 0.00069
TATTATCGGA	0.996 ± 0.048
TATTATGGCG	1.04 ± 0.014
TATTATGGGA	0.991 ± 0.035
TATTATGGGT	0.982 ± 0.036
TATTATTGGA	1 ± 0.042
TATTATTGGG	1 ± 0.0054
TATTCCTTGG	0.966 ± 0.012
TATTCCTTTT	1.01 ± 0.013
TATTCGGAGC	1.01 ± 0.037
TATTCGGGGT	0.99 ± 0.028
TATTGACAGA	1.022 ± 0.0053
TATTGACATT	1.016 ± 0.0071
